{
  "source": "a protein production outcome set (Wang et al. 2014)",
  "data": [
    {"assay": "label from the status in PepcDB records", "values": [
      {"sequence": "MPMSFSLTQMILISAAYLAVLFGVAWISERGMIPRSIIRHPLTYTLSLGVYASAWAFYGTVGLAYQYGYGFLSSYLGVSGAFLLAPVLLYPILKITRTYQLSSLADLFAFRFRSTWAGALTTIFMLIGVLPLLALQIQAVADSIGILTHEPVQHRVALSFCALITLFTIFFGSRHIATREKHEGLVFAIAFESVIKLIAIGGVGLYALYGVFDGPQQLELWLLQNQTALAALHTPLQEGPWRTLLLVFFASAIVMPHMYHMTFTENLNPRALVSASWGLPLFLLLMSLAVPLILWAGLKLGATTNPEYFTLGIGIAANSPALALLAYVGGLSAASGLIIVTTLALSGMALNHLVLPLYQPPAEGNIYRWLKWTRRALIVAIIMAGYAFYLLLGAEQDLANLGIVAFVATLQFLPGVLSVLYWPTANRRGFIAGLLAGILVWLVTMLLPLIGNLQGFYIPLLNMIYVLDDTSWHMAAIASLAANVLMFTLISLFTNASTEEASAAEACAVDNVRRPQRRELHAASPQEFATQLAKPLGAKAAQKEVEQALRDLYLPFDERRPYALRRLRDRIEANLSGLMGPSVAQDMVETFLPYKAGGENYVTEDIHFIESRLEDYHSRLTGLAAELDALRRYHRQTLQELPMGVCSLAKDQEILMWNKAMEELTGIPAQHVVGSRLSTITNPWKDLLQGFINLPDEHLHKQHLALDGQTRWLNLHKAAIDEPLAPGNSGLVLLVEDLTETQTLEDKLVHSERLASIGRLAAGVAHEIGNPITGIACLAQNLREEREEDGELTEISEQILEQTKRISRIVQSLMSFAHAGSHQHNDEAVCLAEVAQDAIGLLALNRRNFEVQFFNLCDPDHWVDGDPQRLAQVLINLLSNARDASPPGSAVRVKSEAFEHTVDLIVEDEGSGIPKNIMDRLFEPFFTTKDPGEGTGLGLALVYSIVEEHYGQITIDSPADPQSQRGTRIRVTLPRHVEATSAVN", "protein production": "failed"},
      {"sequence": "MPMSQSTFTILLGGELSLTERLRDAIEDSRFIAADGGMRHAAALGITPELWVGDFDSTPADLADAFPDVPKQPYPAAKAATDGEIAVAEAIARGARRLILAGALGGERSDHALQHLLSAVSLAEEGFDLLLTSGKEEAVPLVAGTIELDLPKGSLFSVPGFSELRGLAIENARYPLADFHLPFGSSRTISNVAEGKVRFSLRSGRAIVLARPYDLSGV", "protein production": "failed"},
      {"sequence": "MPMTIKRATWNNGPDLAFDINNKANAAIEKYGREAVINAALGTLLDDKGKIIALPSVYDRLDEMDRSHIASYAPIEGEKDYRKIVIDTLFGPYKPEGYISAIATPGGTGAIRSAIFSYLDEGDPLICHDYYWAPYRKICEEFGRNFKTFEFFTDDFAFNIDVYKEAIDEGIRDSDRIASLINSPGNNPTGYSLSDEEWDEVITFLKEKAEDKDKKITLIVDVAYLEFAGDGDQQRKFFEKFSNLPRNLFVVVAFSMSKSHTAYGLRSGAAVGISSSKEIIEEFEASLAHSARCNWSNGTHAAQNILIELERAENKKIYEQELVDLRNMLKSRADVFVTAAKENKLTMIPYFGGFFTFIPTDKAFDIVKDLEKENIFTIPSAKGIRVAICGVGEEKIPKLVQRLAFYTNKK", "protein production": "not failed"},
      {"sequence": "MPNCEKEALVVAAAMEKGTIHPIGRYLLPQYWEGPPLCFEYFPGRGLTATVSCIESVTEGNKLRKSSLGSVEFITSLFESQDQSREIKNAVNSSLYGNDFVHALLSLYQKVTLIHLEDQPHQPFYRPISLNLRHVMIKINTFIQFFFRMNQISNHEIGSFSAFATQFFSFLTHYSILPNPINSLNPTLRPLVPCTIHELAPPPAPPPFPSCKSAM", "protein production": "failed"},
      {"sequence": "MPPDEIEIEPVRQSSDKMLYCEAESPPTVEKVKPARENSETDLEIEDDEKFFTTGQKELYLEACKLMGVVPVSYFIRNMEESYVNLNHHGLGPRGTKAIAIALVSNMAVTKLELEDNCIMEEGVLSLVEMLQENYYLQEMNISNNHLGLEGARIISDFFERNSSSIWSLELSGNDFKEDSAALLCQALSTNYQIKKLDLSHNQFSDVGGEHLGQMLAINVGLTSLDLSWNNFHTRGAVALCNGLRGNVTLTKLDLSMNGFGNEVALALGEVLRLNRCLVYLDIGGNDIGNEGASKISKGLESNESLRVLKLFLNPINMDGAILLILAIKRNPKSRMEELDISNVLVSEQFMKTLDGVYAVHPQLDVVFKAVQGLSPKKTIFLLTNPMKLIQSYADQHKITIVDFFKSLNPTGTMKMSVDEFQKVMIEQNKVPLNQYQVREVIKKLDEKTGMVNFSFLNTMKP", "protein production": "failed"},
      {"sequence": "MPPFMSGLRAVSSLLSCRNAISRKLVSRSGIPRGSFVSDQIRRFGSLSGVERCSSNWLMSNDDARVSFRRLPGSVSLLQRRHFLGCGDGEEGGGELSKIYEERRVLGYTPEQMFNVVAAVDLYHGFVPWCQRSEVLKEYPDGSFDAELEIGFKFLVESYISHVESERPKWIKTTARDTGLFDHLINLWQFKPGPIPGTCDLHFHVDFKFNSPLYRQVASMFFKEVASRLVGAFSDRCRLVYGPGVRVDENAYEQRA", "protein production": "failed"}
    ]}
  ]
}
